Assay results reported in paper PMC12196458, “An Alternative Mechanism of Glutamate Dehydrogenase Inhibition by EGCG: Promotion of Protein Degradation” (Pharmaceuticals, 2025).

Molecular target: the molecule itself
Test: native gel or EMSA; native-PAGE of 2.5 mg/mL bovine GDH without EGCG or trypsin

B1: bovine glutamate dehydrogenase (enzyme)
chain: not shown
notes: Glutamate dehydrogenase 1, bovine, commercial preparation; Used as a substitute for wild-type human GDH in the gel experiments; also called Bovine GDH; Bo.GDH
With B1 the “stoichiometry N” value was 6.
